# From US20110177084A1 (RIKEN, published 2011)
# T1: High mobility group box 1 (HMGB1) (UniProt P63158 1-215)
# T1 sequence (looked up): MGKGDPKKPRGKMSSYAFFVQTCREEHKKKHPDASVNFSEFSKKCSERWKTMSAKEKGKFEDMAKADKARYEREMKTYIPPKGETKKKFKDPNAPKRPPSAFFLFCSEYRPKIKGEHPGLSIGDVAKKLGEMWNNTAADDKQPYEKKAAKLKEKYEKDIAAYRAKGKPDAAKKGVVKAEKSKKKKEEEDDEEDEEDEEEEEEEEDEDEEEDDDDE
# T2: mouse Mincle (Macrophage inducible C-type lectin) (mouse, UniProt Q9R0Q8 1-214)
# T2 construct: whole, on cells; Expressed from cDNA in 293T, 2B4 and RBL-2H3 cells, or endogenous in mouse peritoneal macrophages; also called Clec4e; Clecsf9
# T2 sequence (looked up): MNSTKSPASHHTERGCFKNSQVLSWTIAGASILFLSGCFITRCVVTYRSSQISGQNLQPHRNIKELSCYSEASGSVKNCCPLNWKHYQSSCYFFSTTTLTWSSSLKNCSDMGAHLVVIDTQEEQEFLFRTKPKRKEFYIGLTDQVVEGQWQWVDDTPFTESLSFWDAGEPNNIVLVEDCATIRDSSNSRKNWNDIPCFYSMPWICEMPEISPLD
# B1: spliceosome-binding protein 130 (SAP130) from 2B4 cell lysate (ligand, UniProt Q921M3 1-1217, looked up)
# chain: MFLYNLTLQRATGISFAIHGNFSGTKQQEIVVSRGKILELLRPDPNTGKVHTLLTVEVFGVIRSLMAFRLTGGTKDYIVVGSDSGRIVILEYQPSKNMFEKIHQETFGKSGCRRIVPGQFLAVDPKGRAVMISAIEKQKLVYILNRDAAARLTISSPLEAHKANTLVYHVVGVDVGFENPMFACLEMDYEEADNDPTGEAAANTQQTLTFYELDLGLNHVVRKYSEPLEEHGNFLITVPGGSDGPSGVLICSENYITYKNFGDQPDIRCPIPRRRNDLDDPERGMIFVCSATHKTKSMFFFLAQTEQGDIFKITLETDEDMVTEIRLKYFDTVPVAAAMCVLKTGFLFVASEFGNHYLYQIAHLGDDDEEPEFSSAMPLEEGDTFFFQPRPLKNLVLVDELDSLSPILFCQIADLANEDTPQLYVACGRGPRSSLRVLRHGLEVSEMAVSELPGNPNAVWTVRRHIEDEFDAYIIVSFVNATLVLSIGETVEEVTDSGFLGTTPTLSCSLLGDDALVQVYPDGIRHIRADKRVNEWKTPGKKTIVKCAVNQRQVVIALTGGELVYFEMDPSGQLNEYTERKEMSADVVCMSLANVPPGEQRSRFLAVGLVDNTVRIISLDPSDCLQPLSMQALPAQPESLCIVEMGGTEKQDELGERGSIGFLYLNIGLQNGVLLRTVLDPVTGDLSDTRTRYLGSRPVKLFRVRMQGQEAVLAMSSRSWLSYSYQSRFHLTPLSYETLEFASGFASEQCPEGIVAISTNTLRILALEKLGAVFNQVAFPLQYTPRKFVIHPESNNLIIIETDHNAYTEATKAQRKQQMAEEMVEAAGEDERELAAEMAAAFLNENLPESIFGAPKAGNGQWASVIRVMNPIQGNTLDLVQLEQNEAAFSVAVCRFSNTGEDWYVLVGVAKDLILSPRSVAGGFVYTYKLVNNGEKLEFLHKTPVEEVPAAIAPFQGRVLIGVGKLLRVYDLGKKKLLRKCENKHIANYISGIQTIGHRVIVSDVQESFIWVRYKRNENQLIIFADDTYPRWVTTASLLDYDTVAGADKFGNICVVRLPPNTNDEVDEDPTGNKALWDRGLLNGASQKAEVIMNYHVGETVLSLQKTTLIPGGSESLVYTTLSGGIGILVPFTSHEDHDFFQHVEMHLRSEHPPLCGRDHLSFRSYYFPVKNVIDGDLCEQFNSMEPNKQKNVSEELDRTPPEVSKKLEDIRTRYAF
# notes: also called Sf3b3; 130-kD protein
# B2: hIgG1 Fc-Mincle fusion protein (Ig-Mincle) (Fc fusion, mouse, UniProt Q9R0Q8 46-214, looked up)
# chain: TYRSSQISGQNLQPHRNIKELSCYSEASGSVKNCCPLNWKHYQSSCYFFSTTTLTWSSSLKNCSDMGAHLVVIDTQEEQEFLFRTKPKRKEFYIGLTDQVVEGQWQWVDDTPFTESLSFWDAGEPNNIVLVEDCATIRDSSNSRKNWNDIPCFYSMPWICEMPEISPLD
# notes: range 46-214; also called soluble Mincle protein; not shown: human IgG1 Fc region (hIgG Fc lacking a termination codon, from pME18S-SLAMsig-hIgG Fc)
# B3: endogenous FcRγ of mouse peritoneal macrophages (receptor, UniProt P20491 19-86, looked up)
# chain: LGEPQLCYILDAVLFLYGIVLTLLYCRLKIQVRKAAIASREKADAVYTGLNTRSQETYETLKHEKPPQ
# notes: whole, on cells; Co-immunoprecipitated from the lysate of thioglycolate-induced, LPS-stimulated peritoneal macrophages
# Key:
# hIgG1 Fc (Ig) = molecular target: T3, hIgG1 Fc (Ig) (human, UniProt P01857-1 99-330 = IgG part, limits assumed); assay: pull-down from 2B4 dead cell lysate with Ig on Protein G Sepharose, silver staining, no Ca2+
# T3 construct: domain: hIgG1 Fc; Control for Ig-Mincle; also called control Ig
# Source text: A 2B4 dead cell lysate was pulled down using the indicated Sepharose beads and blotted with anti-SAP130, anti-DDB1, anti-HMGB1 and anti-hIgG-HRP.
# [1] = molecular target: T1, High mobility group box 1 (HMGB1); assay: pull-down from 2B4 cell lysate, immunoblot with anti-HMGB1
# Source text: A 2B4 dead cell lysate was pulled down using the indicated Sepharose beads and blotted with anti-SAP130, anti-DDB1, anti-HMGB1 and anti-hIgG-HRP. […] Live (L) or dead (D) 2B4 cells were pulled down using the indicated beads and blotted with the indicated antibodies.
# [2] = molecular target: damaged-DNA binding protein 1 (DDB1) (UniProt Q3U1J4 2-1140); assay: pull-down from 2B4 dead cell lysate, immunoblot with anti-DDB1
# Sequence of damaged-DNA binding protein 1 (DDB1) (Q3U1J4 2-1140 limits assumed): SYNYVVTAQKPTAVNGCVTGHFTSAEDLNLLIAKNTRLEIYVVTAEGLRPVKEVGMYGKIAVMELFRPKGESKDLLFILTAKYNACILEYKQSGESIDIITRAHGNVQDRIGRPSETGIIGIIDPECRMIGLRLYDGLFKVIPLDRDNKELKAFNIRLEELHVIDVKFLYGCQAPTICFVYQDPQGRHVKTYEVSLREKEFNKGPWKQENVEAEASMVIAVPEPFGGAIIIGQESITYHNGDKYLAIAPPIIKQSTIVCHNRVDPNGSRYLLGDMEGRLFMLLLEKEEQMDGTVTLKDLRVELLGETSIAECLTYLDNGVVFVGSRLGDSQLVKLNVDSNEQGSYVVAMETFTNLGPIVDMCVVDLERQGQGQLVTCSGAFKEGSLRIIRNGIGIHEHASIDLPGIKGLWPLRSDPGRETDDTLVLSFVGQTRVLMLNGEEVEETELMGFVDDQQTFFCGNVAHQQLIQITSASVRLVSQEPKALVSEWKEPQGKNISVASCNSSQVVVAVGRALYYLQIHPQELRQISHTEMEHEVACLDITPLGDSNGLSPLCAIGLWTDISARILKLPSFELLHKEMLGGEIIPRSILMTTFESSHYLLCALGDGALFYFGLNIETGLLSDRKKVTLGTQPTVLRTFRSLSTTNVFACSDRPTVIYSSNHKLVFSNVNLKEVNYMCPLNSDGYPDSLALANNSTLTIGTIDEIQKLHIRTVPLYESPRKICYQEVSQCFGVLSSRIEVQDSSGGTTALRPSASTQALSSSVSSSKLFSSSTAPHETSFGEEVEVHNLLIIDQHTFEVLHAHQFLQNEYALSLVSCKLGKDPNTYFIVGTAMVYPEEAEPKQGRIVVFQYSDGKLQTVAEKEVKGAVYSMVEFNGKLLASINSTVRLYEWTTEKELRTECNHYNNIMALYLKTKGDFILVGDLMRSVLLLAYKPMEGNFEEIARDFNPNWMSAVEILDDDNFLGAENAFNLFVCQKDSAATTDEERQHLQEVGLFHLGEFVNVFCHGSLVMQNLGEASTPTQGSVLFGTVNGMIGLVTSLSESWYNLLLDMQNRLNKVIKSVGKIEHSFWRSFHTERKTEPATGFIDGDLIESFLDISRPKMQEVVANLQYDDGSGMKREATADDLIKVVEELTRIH
# Source text: The cells were also stained with Annexin V-FITC (AnV) and propidium iodide (PI). […] A 2B4 dead cell lysate was pulled down using the indicated Sepharose beads and blotted with anti-SAP130, anti-DDB1, anti-HMGB1 and anti-hIgG-HRP. […] Live (L) or dead (D) 2B4 cells were pulled down using the indicated beads and blotted with the indicated antibodies.
# [3] = molecular target: T2, mouse Mincle (Macrophage inducible …); assay: immunoprecipitation with anti-Mincle polyclonal antibody from macrophage lysate, anti-FcRγ blot
binder,measurement,setting,value
B1,binding result,hIgG1 Fc (Ig),no binding
B2,binding result,[1],no binding
same,binding result,[2],no binding
B3,binding result,[3],binds
